The target in assay [1] is Fc fused human IL-18BP isoform a (IL-18BPa) (human) (UniProt O95998). As to the kind of experiment: SPR, Fc-IL-18BPa captured, 1:1 fit. A general note: Surface plasmon resonance follows binding to a sensor surface in real time, without labels.
For assay [2], the target named is His-tagged human IL-18BP (human) (UniProt O95998). As to the kind of experiment: AlphaLISA of free IL-18BP (signal at 615 nm) after incubation of His-tagged human IL-18BP with a dilution series of the IL-18 polypeptide. (Bead proximity is the source of the signal in Alpha formats.)
Assay [3] shares this target. As to the kind of experiment: AlphaLISA of free IL-18BP.

pKd: −log10 of the molar value.

From patent publication US20250186594A1 come the findings set out here.

For orientation: pKd means the negative decadic logarithm of the Kd, by convention in mol/L. Higher therefore signals a small Kd. As a reminder, the koff is the rate constant with which the complex falls apart. A higher koff goes with a short-lived complex. What is called kon is the second-order rate constant of association. A lower kon goes with slower complex formation.

Sequence of Fc fused human IL-18BP isoform a (IL-18BPa) (human) (O95998 31-194): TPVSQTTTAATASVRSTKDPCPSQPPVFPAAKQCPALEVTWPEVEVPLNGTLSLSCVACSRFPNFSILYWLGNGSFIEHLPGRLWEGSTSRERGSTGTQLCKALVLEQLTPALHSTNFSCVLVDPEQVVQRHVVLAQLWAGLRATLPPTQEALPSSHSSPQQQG
Sequence of Native IL-18 wild-type (SEQ ID NO: 1, native sequence) (Q14116 37-193): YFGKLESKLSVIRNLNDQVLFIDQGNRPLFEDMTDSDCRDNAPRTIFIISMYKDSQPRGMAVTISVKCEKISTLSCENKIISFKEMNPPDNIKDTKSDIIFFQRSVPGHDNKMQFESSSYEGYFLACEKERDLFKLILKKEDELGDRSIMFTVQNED

For the substance “IL-18 variant SEQ ID NO: 30 (E6K, V11I, C38A, K53A, T63A, C76A, C127A) (from UniProt Q14116 37-193) (ligand)”, in assay [1], the negative-log Kd (pKd) was 8.52, the off-rate constant (koff) is 0.00345 s⁻¹ and the on-rate (kon) turned out to be 1.05e+06 M⁻¹ s⁻¹. This substance also yielded an IC50 (read off the curve) in assay [2] of 8 nM. This substance also had a pKd in assay [3] of 7.61.

In assay [1], “IL-18 variant SEQ ID NO: 30 with 5 kDa PEG (E6K, V11I, C38A, K53A, T63A, C76A, C127A, C68-5kPEG) (from UniProt Q14116 37-193) (ligand)” gave a pKd of 8.32, an off-rate constant (koff) of 0.00386 s⁻¹ and a kon of 813000 M⁻¹ s⁻¹. The same substance gave a negative logarithm of the Kd (pKd) in assay [3] of 7.71.

In assay [1], “IL-18 variant SEQ ID NO: 30 with 10 kDa PEG (E6K, V11I, C38A, K53A, T63A, C76A, C127A, C68-10kPEG) (from UniProt Q14116 37-193) (ligand)” showed a pKd of 8.17, a koff of 0.0036 s⁻¹ and a kon of 527000 M⁻¹ s⁻¹. The same substance showed a negative-log Kd (pKd) in assay [3] of 7.80.

With “IL-18 variant SEQ ID NO: 30 with 20 kDa PEG (E6K, V11I, C38A, K53A, T63A, C76A, C127A, C68-20kPEG) (from UniProt Q14116 37-193) (ligand)”, in assay [1], the pKd is 7.92, the off-rate constant (koff) came to 0.00397 s⁻¹ and the kon amounted to 330000 M⁻¹ s⁻¹. The substance also showed a negative-log Kd (pKd) in assay [3] of 7.71.

Turning to “IL-18 variant SEQ ID NO: 30 with 30 kDa PEG (E6K, V11I, C38A, K53A, T63A, C76A, C127A, C68-30kPEG) (from UniProt Q14116 37-193) (ligand)”, in assay [1], the negative-log Kd (pKd) is 7.35, the koff came to 0.00451 s⁻¹ and the on-rate constant (kon) came out at 106000 M⁻¹ s⁻¹. In assay [3], the negative-log Kd (pKd) is 7.58.

In assay [1], “IL-18 variant SEQ ID NO: 57 (E6K, C38S, K53A) (from UniProt Q14116 37-193) (ligand)” gave a pKd of 8.74, an off-rate constant (koff) of 0.00311 s⁻¹ and an on-rate (kon) of 1.63e+06 M⁻¹ s⁻¹. The same substance had a pKd in assay [3] of 7.32.

In assay [1], “IL-18 variant SEQ ID NO: 57 with 30 kDa PEG (E6K, C38S, K53A, C68-30kDPEG) (from UniProt Q14116 37-193) (ligand)” had a negative-log Kd (pKd) of 7.64, an off-rate (koff) of 0.00397 s⁻¹ and a kon of 177000 M⁻¹ s⁻¹. The pKd in assay [3] is 7.37.

“IL-18 variant SEQ ID NO: 59 (E6K, C38A, K53A) (from UniProt Q14116 37-193) (ligand)”: in assay [1], the negative logarithm of the Kd (pKd) is 8.69, the off-rate constant (koff) is 0.00301 s⁻¹ and the kon amounted to 1.47e+06 M⁻¹ s⁻¹. In addition, the pKd in assay [3] is 7.44.

“IL-18 variant SEQ ID NO: 59 with 30 kDa PEG (E6K, C38A, K53A, C68-30kDPEG) (from UniProt Q14116 37-193) (ligand)”: in assay [1], the pKd was 7.71, the koff worked out at 0.00355 s⁻¹ and the kon turned out to be 199000 M⁻¹ s⁻¹. Also, in assay [3], the pKd was 7.12.

As for “IL-18 variant SEQ ID NO: 60 (E6K, C38Q, K53A) (from UniProt Q14116 37-193) (ligand)”, in assay [1], the negative-log Kd (pKd) was 8.77, the koff was determined as 0.00308 s⁻¹ and the kon came out at 1.87e+06 M⁻¹ s⁻¹. This substance also had a pKd in assay [3] of 7.61.

Turning to “IL-18 variant SEQ ID NO: 60 with 30 kDa PEG (E6K, C38Q, K53A, C68-30kPEG) (from UniProt Q14116 37-193) (ligand)”, in assay [1], the pKd was 7.66, the off-rate (koff) is 0.00395 s⁻¹ and the on-rate (kon) was 193000 M⁻¹ s⁻¹. The substance also gave a pKd in assay [3] of 7.20.

In assay [1], “IL-18 variant SEQ ID NO: 61 (E6K, C38A, K53A, C76A) (from UniProt Q14116 37-193) (ligand)” showed a negative-log Kd (pKd) of 8.68, a koff of 0.0036 s⁻¹ and a kon of 1.74e+06 M⁻¹ s⁻¹.

In assay [1], “IL-18 variant SEQ ID NO: 61 with 30 kDa PEG (E6K, C38A, K53A, C76A, C68-30kPEG) (from UniProt Q14116 37-193) (ligand)” showed a pKd of 7.43, a koff of 0.00382 s⁻¹ and a kon of 102000 M⁻¹ s⁻¹.

In assay [1], “IL-18 variant SEQ ID NO: 62 (E6K, C38A, K53A, C127A) (from UniProt Q14116 37-193) (ligand)” had a negative logarithm of the Kd (pKd) of 8.71, an off-rate constant (koff) of 0.00315 s⁻¹ and a kon of 1.61e+06 M⁻¹ s⁻¹. In assay [3], this substance showed a pKd of 7.16.

With “IL-18 variant SEQ ID NO: 62 with 30 kDa PEG (E6K, C38A, K53A, C127A, C68-30kPEG) (from UniProt Q14116 37-193) (ligand)”, in assay [1], the pKd is 7.62, the off-rate constant (koff) came to 0.00342 s⁻¹ and the association rate constant (kon) is 142000 M⁻¹ s⁻¹. Further, the pKd in assay [3] was 7.53.

In assay [1], “IL-18 variant SEQ ID NO: 63 (E6K, C38A, K53A, C76A, C127A) (from UniProt Q14116 37-193) (ligand)” showed a pKd of 8.82, a koff of 0.00424 s⁻¹ and an on-rate (kon) of 2.82e+06 M⁻¹ s⁻¹. In assay [3], this substance showed a pKd of 7.69.

As for “IL-18 variant SEQ ID NO: 210 (V11I, E31A, C38A, K53A, C76A, C127A) (from UniProt Q14116 37-193) (ligand)”, the negative-log Kd (pKd) in assay [3] was 9.19.

As for “IL-18 variant SEQ ID NO: 211 (V11I, T34A, C38A, K53A, C76A, C127A) (from UniProt Q14116 37-193) (ligand)”, in assay [3], the pKd is 8.91.

With “IL-18 variant SEQ ID NO: 212 (V11I, D35A, C38A, K53A, C76A, C127A) (from UniProt Q14116 37-193) (ligand)”, the negative logarithm of the Kd (pKd) in assay [3] is 8.54.

“IL-18 variant SEQ ID NO: 213 (V11I, S36A, C38A, K53A, C76A, C127A) (from UniProt Q14116 37-193) (ligand)” gave a pKd in assay [3] of 8.95.

Substance “IL-18 variant SEQ ID NO: 214 (V11I, D37A, C38A, K53A, C76A, C127A) (from UniProt Q14116 37-193) (ligand)” had a pKd in assay [3] of 8.34.

With “IL-18 variant SEQ ID NO: 215 (V11I, E31A, D37A, C38A, K53A, C76A, C127A) (from UniProt Q14116 37-193) (ligand)”, the pKd in assay [3] was 8.67.

As to “IL-18 variant SEQ ID NO: 216 (V11I, C38A, D40A, K53A, C76A, C127A) (from UniProt Q14116 37-193) (ligand)”, the pKd in assay [3] is 9.13.

For the substance “IL-18 variant SEQ ID NO: 217 (V11I, C38A, N41A, K53A, C76A, C127A) (from UniProt Q14116 37-193) (ligand)”, the negative logarithm of the Kd (pKd) in assay [3] was 7.73.

On to “IL-18 variant SEQ ID NO: 218 (V11I, C38A, K53A, C76A, C127A, D132A) (from UniProt Q14116 37-193) (ligand)”, for which the pKd in assay [3] was 7.86.

In assay [3], “IL-18 variant SEQ ID NO: 219 (V11I, C38A, K53A, C76A, G108A, C127A) (from UniProt Q14116 37-193) (ligand)” gave a negative logarithm of the Kd (pKd) of 8.91.

Regarding “IL-18 variant SEQ ID NO: 220 (V11I, C38A, K53A, C76A, H109A, C127A) (from UniProt Q14116 37-193) (ligand)”, the pKd in assay [3] was 9.26.

For “IL-18 variant SEQ ID NO: 221 (V11I, C38A, K53A, C76A, D110A, C127A) (from UniProt Q14116 37-193) (ligand)”, the negative-log Kd (pKd) in assay [3] is 9.15.

In turn, “IL-18 variant SEQ ID NO: 222 (K8R, V11I, C38A, C76A, Q103E, C127A) (from UniProt Q14116 37-193) (ligand)” had a negative logarithm of the Kd (pKd) in assay [3] of 10.22.

As to “IL-18 variant SEQ ID NO: 223 (K8E, V11I, C38A, C76A, Q103R, C127A) (from UniProt Q14116 37-193) (ligand)”, the pKd in assay [3] was 9.07.

“IL-18 variant SEQ ID NO: 224 (V11I, C38A, C76A, Q103K, C127A) (from UniProt Q14116 37-193) (ligand)”: the negative-log Kd (pKd) in assay [3] was 10.30.

On to “IL-18 variant SEQ ID NO: 225 (V11I, C38A, S55H, C76A, C127A) (from UniProt Q14116 37-193) (ligand)”, for which the pKd in assay [3] is 10.10.

In assay [3], “IL-18 variant SEQ ID NO: 226 (V11I, C38A, S55R, C76A, C127A) (from UniProt Q14116 37-193) (ligand)” had a pKd of 9.82.

With “IL-18 variant SEQ ID NO: 227 (V11I, C38A, S55T, C76A, C127A) (from UniProt Q14116 37-193) (ligand)”, the pKd in assay [3] is 10.70.

In assay [3], “IL-18 variant SEQ ID NO: 228 (V11I, C38A, C76A, S105I, C127A) (from UniProt Q14116 37-193) (ligand)” showed a pKd of 10.40.

“IL-18 variant SEQ ID NO: 229 (V11I, C38A, C76A, S105K, C127A) (from UniProt Q14116 37-193) (ligand)” gave a negative-log Kd (pKd) in assay [3] of 10.30.

“IL-18 variant SEQ ID NO: 230 (K8L, E6K, V11I, C38A, K53A, T63A, C76A, C127A) (from UniProt Q14116 37-193) (ligand)” showed a negative-log Kd (pKd) in assay [3] of 9.85.

Consider “IL-18 variant SEQ ID NO: 232 (E6K, V11I, C38A, I49M, K53A, T63A, C76A, C127A) (from UniProt Q14116 37-193) (ligand)”, for which, in assay [3], the negative-log Kd (pKd) is 7.59.

“IL-18 variant SEQ ID NO: 240 (E6R, V11I, C38A, K53A, T63A, C76A, C127A) (from UniProt Q14116 37-193) (ligand)” had a pKd in assay [3] of 8.26.

As to “IL-18 variant SEQ ID NO: 243 (Y1M, E6K, V11I, C38A, K53A, T63A, C76A, C127A) (from UniProt Q14116 38-193) (ligand)”, the pKd in assay [3] is 8.65.

In assay [1], “Native IL-18 wild-type (SEQ ID NO: 1, native sequence) (from UniProt Q14116 37-193) (ligand)” had a negative-log Kd (pKd) of 9.61, a koff of 0.00038 s⁻¹ and a kon of 1.28e+06 M⁻¹ s⁻¹. This substance showed an IC50 (read off the curve) in assay [2] of 0.6 nM. In assay [3], this substance had a negative-log Kd (pKd) of 9.39.
